# Data: patent EP3010938
# Where a chain is given by its changes, count along the chain named.
# T1: rat FcRn (rat, UniProt P13599)
# T1 chain 1: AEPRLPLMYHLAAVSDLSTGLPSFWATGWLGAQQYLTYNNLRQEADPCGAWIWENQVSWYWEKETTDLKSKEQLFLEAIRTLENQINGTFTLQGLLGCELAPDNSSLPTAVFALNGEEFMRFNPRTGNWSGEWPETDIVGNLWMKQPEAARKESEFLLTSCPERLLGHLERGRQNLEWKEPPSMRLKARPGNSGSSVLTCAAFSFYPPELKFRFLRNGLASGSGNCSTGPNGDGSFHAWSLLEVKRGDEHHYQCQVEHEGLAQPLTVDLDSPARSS
# T1 chain 2: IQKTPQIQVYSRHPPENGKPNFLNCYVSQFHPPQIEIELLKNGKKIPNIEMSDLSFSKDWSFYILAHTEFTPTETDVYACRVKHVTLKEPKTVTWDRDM
# T2: mouse FcRn (mouse, UniProt Q61559)
# T2 chain 1: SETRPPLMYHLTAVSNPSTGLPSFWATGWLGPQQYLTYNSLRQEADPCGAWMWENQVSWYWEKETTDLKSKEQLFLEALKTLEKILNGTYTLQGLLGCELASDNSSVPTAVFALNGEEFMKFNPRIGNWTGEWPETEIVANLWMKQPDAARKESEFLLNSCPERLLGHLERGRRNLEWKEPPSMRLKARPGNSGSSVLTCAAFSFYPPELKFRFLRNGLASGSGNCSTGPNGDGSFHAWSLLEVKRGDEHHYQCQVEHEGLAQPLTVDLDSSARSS
# T2 chain 2: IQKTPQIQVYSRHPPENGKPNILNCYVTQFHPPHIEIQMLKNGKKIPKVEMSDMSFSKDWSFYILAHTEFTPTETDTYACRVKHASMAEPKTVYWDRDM
# B1: HL161-11H (antibody)
# chain 1: QMQLVESGGGLVQPGRSLRLSCAASGFTFSSYAMHWVRQAPGKGLEWVAVISYDGSNKYYADSVKGRFTISRDNSKNTLYLQMNSLRSEDTAVYYCSRGSGGRDAFDVWGQGTMITVSS
# chain 2: DIQMTQSPSTLSASVGDRVTITCRASQSISSRLAWYQQKPGKAPKLLIYKASSLETGVPSRFSGSGSGTEFTLTISSLQPDDFATYYCQQTNSFPLTFGGGTKVEIK
# B2: HL161-10E (antibody)
# chain 1: QVQLVESGGGLVQPGGSLRLSCAASGFRFSNFAMTWVRQAPGKGLEWVSTLSGSGGSIHHADSVKGRFTISRDNSKNTLYLQMNSLRAEDTAVYYCAKGPLRGQPAYLDPWGQGTLVTVSS
# chain 2: SYELTQPLSVSMSPGQTARITCSGDALSKQYASWYQLKPGQAPVVVMYKDTERPSGIPDRFSGSSSGTTVTLTISGVQAEDEADYYCQSITDKSGTDVIFGGGTKLTVL
# B3: HL161-6C (antibody)
# chain 1: QVQLVESGAEVKKPGASVKVSCKASGYTFTSYYMHWVRQAPGQGLEWMGIINPSGGSTSYAQKFQGRVTMTRDTSTSTVYMELSSLRSEDTAVYYCARGGGAFDIWGQGTMVTVSS
# chain 2: DIQMTQSPSSVSASVGDRVTITCRASQGISNWVAWYQQKPGKAPKLLIYAASSLQSGVPSRFSGSGSGTDFTLTISSLQPEDFAIYYCQQGHSFPYTFGQGTKVEIK
# B4: 11Hg (antibody)
# chain 1: B1 chain 1 with M2V, L11V, S88A, S97A
# chain 2: B1 chain 2
# B5: A12-H04 (antibody)
# chain 1: EVQLVESGGGLVQPGRSLRLSCAASGFTFDEYGMHWVRQAPGKGLEWVSGVSWNSGSIAYADSVRGRFTISRDNAKNSLYLQMNSLRAEDTALYYCAKGRLLDVWGQGTTVTVSS
# chain 2: QSALTQPASVSGSPGQSITISCTGSSSDVGGYNYVSWYQQHPGKAPKLMIYDVTKRPSGVSNRFSGSKSGNTASLTISGLQAEDEADYYGAYSNTNFYVFGTGTKVTVL
# B6: A11-G06 (antibody)
# chain 1: B5 chain 1 with L102M
# chain 2: B5 chain 2 with A91S, S93N, T95N, N96T
# B7: A12-E05 (antibody)
# chain 1: B5 chain 1 with L101I
# chain 2: B5 chain 2 with A91S, S93N, T95S, N96T
# B8: A12-E04 (antibody)
# chain 1: B5 chain 1 with L102F
# chain 2: B5 chain 2 with A91S, T95S
# B9: A12-C09 (antibody)
# chain 1: B5 chain 1 with L101T, L102M
# chain 2: B5 chain 2 with A91S, N94S, T95N, N96T
# B10: A12-F02 (antibody)
# chain 1: B5 chain 1 with L101Y
# chain 2: B5 chain 2 with A91S, S93D, N94S, T95N, N96T
# B11: A11-C07 (antibody)
# chain 1: B5 chain 1 with L101Y, L102S
# chain 2: B5 chain 2 with G90A, A91S, N94S, T95N, N96T
# B12: A12-E01 (antibody)
# chain 1: B5 chain 1 with G99S, L101S, L102M
# chain 2: B5 chain 2 with A91S, T95N
# B13: 1Ag (antibody)
# chain 1: B5 chain 1 with L101S, L102M
# chain 2: QSALTQPASVSGSPGQSITISCTGSSSDVGGYNYVSWYQQHPGKAPKLMIYDVTKRPSGVSNRFSGSKSGNTASLTISGLQAEDEADYYCSSYSSSTFYVFGTGTKVTVL
# B14: HL161-11G (antibody)
# chain 1: QMQLVESGGGVVQPGRSLRLSCVGSGFNFNSYGIHWVRQAPGKGLEWVGGIFYDGSQVKYADSVKGRVSISRDNSKNTAYLQMNSLRAEDTAVYYCARRNLLDYWGQGTVVTVSS
# chain 2: B13 chain 2 with Q1N, S2F, A3M, K47Q, M49I, T72S
# B15: HL161-1A (antibody)
# chain 1: B5 chain 1 with E1Q, E6Q, T28S, D30G, A75S, L93V, K98R, L101S, L102M
# chain 2: B13 chain 2 with Q1N, S2F, A3M, S17T, K47Q, M49I, T72S
# Biological target: T1, rat FcRn
# Assay: FACS pH 7.4
row,Binder,binding result
1,B1,no binding

# Biological target: T3, shFcRn (human, UniProt P55899)
# T3 sequence (P55899 24-297, chain 1 of 2): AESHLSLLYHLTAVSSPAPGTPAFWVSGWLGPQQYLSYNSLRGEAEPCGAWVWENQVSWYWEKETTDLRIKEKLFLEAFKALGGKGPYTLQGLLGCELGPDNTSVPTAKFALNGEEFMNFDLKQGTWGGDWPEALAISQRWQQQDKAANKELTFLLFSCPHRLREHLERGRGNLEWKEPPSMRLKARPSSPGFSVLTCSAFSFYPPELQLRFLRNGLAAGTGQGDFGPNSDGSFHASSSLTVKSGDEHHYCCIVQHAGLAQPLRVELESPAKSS
# T3 sequence (chain, as listed by the source, chain 2 of 2): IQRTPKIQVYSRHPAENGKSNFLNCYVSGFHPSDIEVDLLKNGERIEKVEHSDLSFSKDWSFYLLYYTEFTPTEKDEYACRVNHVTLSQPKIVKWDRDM
# Assay: SPR pH 7.4
row,Binder,Kd
1,B2,26 nM
2,B1,0.9 nM
3,B3,6.6 nM

# Biological target: T3, shFcRn
# Assay: SPR pH 7.4
# Remark: another data set of the same source
row,Binder,koff
1,B4,0.000433 s⁻¹

# Biological target: T3, shFcRn
# Assay: SPR pH 6.0
row,Binder,koff
1,B5,0.00022 s⁻¹
2,B6,0.000225 s⁻¹
3,B7,0.000216 s⁻¹
4,B8,0.000132 s⁻¹
5,B9,0.000177 s⁻¹
6,B10,0.000305 s⁻¹
7,B11,0.000393 s⁻¹
8,B12,5.99e-05 s⁻¹
9,B13,0.000222 s⁻¹

# Biological target: T3, shFcRn
# Assay: SPR pH 6.0
# Remark: another data set of the same source
row,Binder,koff
1,B4,0.000434 s⁻¹

# Biological target: T3, shFcRn
# Assay: SPR pH 7.4
# Remark: another data set of the same source
row,Binder,koff
1,B5,0.00235 s⁻¹
2,B6,0.000496 s⁻¹
3,B7,0.00222 s⁻¹
4,B8,0.00137 s⁻¹
5,B9,0.000909 s⁻¹
6,B10,0.000225 s⁻¹
7,B11,0.00248 s⁻¹
8,B12,0.00115 s⁻¹
9,B13,0.000212 s⁻¹

# Biological target: T3, shFcRn
# Assay: SPR pH 6.0
# Remark: another data set of the same source
row,Binder,Kd
1,B2,3.8 nM
2,B14,0.16 nM
3,B1,0.35 nM
4,B3,1.9 nM
5,B15,0.8 nM

# Biological target: T2, mouse FcRn
# Assay: FACS pH 6.0
row,Binder,binding result
1,B1,no binding
